How the values were obtained:
HeLa Kyoto [1] = assay: thermal stability score vs G1/S (z-score of summed log2 fold changes over temperatures); higher = more thermally stable than in G1/S
HeLa Kyoto [2] = assay: solubility change mitosis vs G1/S (difference of NP-40 vs SDS log2 ratios) (log2 ratio difference); higher = more soluble in mitosis
HeLa Kyoto [3] = assay: solubility in G1/S (NP-40 vs SDS abundance) (log2 ratio); higher = more soluble; conditions: cell cycle stage: G1/S
HeLa Kyoto [4] = assay: melting temperature (median over replicates), in situ; higher = more thermally stable
[5] = cell cycle stage: early G1 (4.5 h after nocodazole release)
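For melting temperature (median over replicates), in situ in this document: HeLa Kyoto cells synchronized by double thymidine or nocodazole block, proteins quantified by TMT10plex mass spectrometry, three independent biological replicates.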
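For solubility change mitosis vs G1/S (difference of NP-40 vs SDS log2 ratios) in this document: synchronized HeLa Kyoto cells (double thymidine block for G1/S, nocodazole release for mitosis), protein amounts in NP-40 versus SDS lysates quantified by mass spectrometry, three biological replicates.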
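For solubility in G1/S (NP-40 vs SDS abundance) in this document: HeLa Kyoto cells arrested at G1/S by double thymidine block, proteins quantified by TMT10plex mass spectrometry in mild NP-40 versus SDS extracts, three biological replicates.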
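For thermal stability score vs G1/S (z-score of summed log2 fold changes over temperatures) in this document: synchronized HeLa Kyoto cells, proteins quantified by TMT10plex mass spectrometry, three biological replicates, mitosis taken 0.5 h after nocodazole release, G1/S directly after double thymidine block.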

| Sequence | thermal stability score (HeLa Kyoto [1]; [5]) | thermal stability score (HeLa Kyoto [1]; cell cycle stage: mitosis) | solubility change mitosis (log2) (HeLa Kyoto [2]) | solubility in G1/S (log2) (HeLa Kyoto [3]) | melting temperature (HeLa Kyoto [4]; cell cycle stage: G1/S) [°C] | melting temperature (HeLa Kyoto [4]; cell cycle stage: mitosis) [°C] |
| --- | --- | --- | --- | --- | --- | --- |
| MASSCAVQVKLELGHRAQVRKKPTVEGFTHDWMVFVRGPEHSNIQHFVEKVVFHLHESFPRPKRVCKDPPYKVEESGYAGFILPIEVYFKNKEEPRKVRFDYDLFLHLEGHPPVNHLRCEKLTFNNPTEDFRRKLLKAGGDPNRSIHTSSSSSSSSSSSSSSSSSSSSSSSSSSSSSSSSSSSSSSSSSSTSFSKPHKLMKEHKEKPSKDSREHKSAFKEPSRDHNKSSKESSKKPKENKPLKEEKIVPKMAFKEPKPMSKEPKPDSNLLTITSGQDKKAPSKRPPISDSEELSAKKRKKSSSEALFKSFSSAPPLILTCSADKKQIKDKSHVKMGKVKIESETSEKKKSTLPPFDDIVDPNDSDVEENISSKSDSEQPSPASSSSSSSSSFTPSQTRQQGPLRSIMKDLHSDDNEEESDEVEDNDNDSEMERPVNRGGSRSRRVSLSDGSDSESSSASSPLHHEPPPPLLKTNNNQILEVKSPIKQSKSDKQIKNGECDKAYLDELVELHRRLMTLRERHILQQIVNLIEETGHFHITNTTFDFDLCSLDKTTVRKLQSYLETSGTS [MLLT3] | -0.0552 | 0.557 | 0.411 | -0.355 | 48.5 | 50.5 |
| MASSDIQVKELEKRASGQAFELILSPRSKESVPEFPLSPPKKKDLSLEEIQKKLEAAEERRKSHEAEVLKQLAEKREHEKEVLQKAIEENNNFSKMAEEKLTHKMEANKENREAQMAAKLERLREKDKHIEEVRKNKESKDPADETEAD [STMN1] | -6.5 | -5.49 | 0.208 | 0.635 | 56.7 | 64.1 |
| MASSSPDSPCSCDCFVSVPPASAIPAVIFAKNSDRPRDEVQEVVFVPAGTHTPGSRLQCTYIEVEQVSKTHAVILSRPSWLWGAEMGANEHGVCIGNEAVWTKEPVGEGEALLGMDLLRLALERSSSAQEALHVITGLLEHYGQGGNCLEDAAPFSYHSTFLLADRTEAWVLETAGRLWAAQRIQEGARNISNQLSIGTDISAQHPELRTHAQAKGWWDGQGAFDFAQIFSLTQQPVRMEAAKARFQAGRELLRQRQGGITAEVMMGILRDKESGICMDSGGFRTTASMVSVLPQDPTQPCVHFLTATPDPSRSVFKPFIFGMGVAQAPQVLSPTFGAQDPVRTLPRFQTQVDRRHTLYRGHQAALGLMERDQDRGQQLQQKQQDLEQEGLEATQGLLAGEWAPPLWELGSLFQAFVKRESQAYA [SCRN2] | 0.593 | 0.947 | -0.201 | 0.282 | 51 | 51.1 |
| MASSSTVPLGFHYETKYVVLSYLGLLSQEKLQEQHLSSPQGVQLDIASQSLDQEILLKVKTEIEEELKSLDKEISEAFTSTGFDRHTSPVFSPANPESSMEDCLAHLGEKVSQELKEPLHKALQMLLSQPVTYQAFRECTLETTVHASGWNKILVPLVLLRQMLLELTRRGQEPLSALLQFGVTYLEDYSAEYIIQQGGWGTVFSLESEEEEYPGITAEDSNDIYILPSDNSGQVSPPESPTVTTSWQSESLPVSLSASQSWHTESLPVSLGPESWQQIAMDPEEVKSLDSNGAGEKSENNSSNSDIVHVEKEEVPEGMEEAAVASVVLPARELQEALPEAPAPLLPHITATSLLGTREPDTEVITVEKSSPATSLFVELDEEEVKAATTEPTEVEEVVPALEPTETLLSEKEINAREESLVEELSPASEKKPVPPSEGKSRLSPAGEMKPMPLSEGKSILLFGGAAAVAILAVAIGVALALRKK [BCL2L13] | -2.28 | -2.76 | -0.255 | 0.337 | 53.9 | 54.1 |
| MASSVGNVADSTEPTKRMLSFQGLAELAHREYQAGDFEAAERHCMQLWRQEPDNTGVLLLLSSIHFQCRRLDRSAHFSTLAIKQNPLLAEAYSNLGNVYKERGQLQEAIEHYRHALRLKPDFIDGYINLAAALVAAGDMEGAVQAYVSALQYNPDLYCVRSDLGNLLKALGRLEEAKACYLKAIETQPNFAVAWSNLGCVFNAQGEIWLAIHHFEKAVTLDPNFLDAYINLGNVLKEARIFDRAVAAYLRALSLSPNHAVVHGNLACVYYEQGLIDLAIDTYRRAIELQPHFPDAYCNLANALKEKGSVAEAEDCYNTALRLCPTHADSLNNLANIKREQGNIEEAVRLYRKALEVFPEFAAAHSNLASVLQQQGKLQEALMHYKEAIRISPTFADAYSNMGNTLKEMQDVQGALQCYTRAIQINPAFADAHSNLASIHKDSGNIPEAIASYRTALKLKPDFPDAYCNLAHCLQIVCDWTDYDERMKKLVSIVADQLEKNRLPSVHPHHSMLYPLSHGFRKAIAERHGNLCLDKINVLHKPPYEHPKDLKLSDGRLRVGYVSSDFGNHPTSHLMQSIPGMHNPDKFEVFCYALSPDDGTNFRVKVMAEANHFIDLSQIPCNGKAADRIHQDGIHILVNMNGYTKGARNELFALRPAPIQAMWLGYPGTSGALFMDYIITDQETSPAEVAEQYSEKLAYMPHTFFIGDHANMFPHLKKKAVIDFKSNGHIYDNRIVLNGIDLKAFLDSLPDVKIVKMKCPDGGDNADSSNTALNMPVIPMNTIAEAVIEMINRGQIQITINGFSISNGLATTQINNKAATGEEVPRTIIVTTRSQYGLPEDAIVYCNFNQLYKIDPSTLQMWANILKRVPNSVLWLLRFPAVGEPNIQQYAQNMGLPQNRIIFSPVAPKEEHVRRGQLADVCLDTPLCNGHTTGMDVLWAGTPMVTMPGETLASRVAASQLTCLGCLELIAKNRQEYEDIAVKLGTDLEYLKKVRGKVWKQRISSPLFNTKQYTMELERLYLQMWEHYAAGNKPDHMIKPVEVTESA [OGT] | -0.271 | 1.57 | -0.0669 | 0.302 | 49.4 | 50.3 |
| MASTNAESQLQRIIRDLQDAVTELSKEFQEAGEPITDDSTSLHKFSYKLEYLLQFDQKEKATLLGNKKDYWDYFCACLAKVKGANDGIRFVKSISELRTSLGKGRAFIRYSLVHQRLADTLQQCFMNTKVTSDWYYARSPFLQPKLSSDIVGQLYELTEVQFDLASRGFDLDAAWPTFARRTLTTGSSAYLWKPPSRSSSMSSLVSSYLQTQEMVSNFDLNSPLNNEALEGFDEMRLELDQLEVREKQLRERMQQLDRENQELRAAVSQQGEQLQTERERGRTAAEDNVRLTCLVAELQKQWEVTQATQNTVKELQTCLQGLELGAAEKEEDYHTALRRLESMLQPLAQELEATRDSLDKKNQHLASFPGWLAMAQQKADTASDTKGRQEPIPSDAAQEMQELGEKLQALERERTKVEEVNRQQSAQLEQLVKELQLKEDARASLERLVKEMAPLQEELSGKGQEADQLWRRLQELLAHTSSWEEELAELRREKKQQQEEKELLEQEVRSLTRQLQFLETQLAQVSQHVSDLEEQKKQLIQDKDHLSQQVGMLERLAGPPGPELPVAGEKNEALVPVNSSLQEAWGKPEEEQRGLQEAQLDDTKVQEGSQEEELRQANRELEKELQNVVGRNQLLEGKLQALQADYQALQQRESAIQGSLASLEAEQASIRHLGDQMEASLLAVRKAKEAMKAQMAEKEAILQSKEGECQQLREEVEQCQQLAEARHRELRALESQCQQQTQLIEVLTAEKGQQGVGPPTDNEARELAAQLALSQAQLEVHQGEVQRLQAQVVDLQAKMRAALDDQDKVQSQLSMAEAVLREHKTLVQQLKEQNEALNRAHVQELLQCSEREGALQEERADEAQQREEELRALQEELSQAKCSSEEAQLEHAELQEQLHRANTDTAELGIQVCALTVEKERVEEALACAVQELQDAKEAASREREGLERQVAGLQQEKESLQEKLKAAKAAAGSLPGLQAQLAQAEQRAQSLQEAAHQELNTLKFQLSAEIMDYQSRLKNAGEECKSLRGQLEEQGRQLQAAEEAVEKLKATQADMGEKLSCTSNHLAECQAAMLRKDKEGAALREDLERTQKELEKATTKIQEYYNKLCQEVTNRERNDQKMLADLDDLNRTKKYLEERLIELLRDKDALWQKSDALEFQQKLSAEERWLGDTEANHCLDCKREFSWMVRRHHCRICGRIFCYYCCNNYVLSKHGGKKERCCRACFQKLSEGPGSPDSSGSGTSQGEPSPALSPASPGPQATGGQGANTDYRPPDDAVFDIITDEELCQIQESGSSLPETPTETDSLDPNAAEQDTTSTSLTPEDTEDMPVGQDSEICLLKSGELMIKVPLTVDEIASFGEGSRELFVRSSTYSLIPITVAEAGLTISWVFSSDPKSISFSVVFQEAEDTPLDQCKVLIPTTRCNSHKENIQGQLKVRTPGIYMLIFDNTFSRFVSKKVFYHLTVDRPVIYDGSDFL [FYCO1] | -0.119 | 0.0455 | -0.142 | 0.0536 | 51.3 | 51 |
| MASYPSGSGKPKAKYPFKKRASLQASTAAPEARGGLGAPPLQSARSLPGPAPCLKHFPLDLRTSMDGKCKEIAEELFTRSLAESELRSAPYEFPEESPIEQLEERRQRLERQISQDVKLEPDILLRAKQDFLKTDSDSDLQLYKEQGEGQGDRSLRERDVLEREFQRVTISGEEKCGVPFTDLLDAAKSVVRALFIREKYMALSLQSFCPTTRRYLQQLAEKPLETRTYEQGPDTPVSADAPVHPPALEQHPYEHCEPSTMPGDLGLGLRMVRGVVHVYTRREPDEHCSEVELPYPDLQEFVADVNVLMALIINGPIKSFCYRRLQYLSSKFQMHVLLNEMKELAAQKKVPHRDFYNIRKVDTHIHASSCMNQKHLLRFIKRAMKRHLEEIVHVEQGREQTLREVFESMNLTAYDLSVDTLDVHADRNTFHRFDKFNAKYNPIGESVLREIFIKTDNRVSGKYFAHIIKEVMSDLEESKYQNAELRLSIYGRSRDEWDKLARWAVMHRVHSPNVRWLVQVPRLFDVYRTKGQLANFQEMLENIFLPLFEATVHPASHPELHLFLEHVDGFDSVDDESKPENHVFNLESPLPEAWVEEDNPPYAYYLYYTFANMAMLNHLRRQRGFHTFVLRPHCGEAGPIHHLVSAFMLAENISHGLLLRKAPVLQYLYYLAQIGIAMSPLSNNSLFLSYHRNPLPEYLSRGLMVSLSTDDPLQFHFTKEPLMEEYSIATQVWKLSSCDMCELARNSVLMSGFSHKVKSHWLGPNYTKEGPEGNDIRRTNVPDIRVGYRYETLCQELALITQAVQSEMLETIPEEAGITMSPGPQ [AMPD2] | -0.578 | -2.37 | -0.181 | 0.0591 | 56.2 | 55 |
| MATAATIPSVATATAAALGEVEDEGLLASLFRDRFPEAQWRERPDVGRYLRELSGSGLERLRREPERLAEERAQLLQQTRDLAFANYKTFIRGAECTERIHRLFGDVEASLGRLLDRLPSFQQSCRNFVKEAEEISSNRRMNSLTLNRHTEILEILEIPQLMDTCVRNSYYEEALELAAYVRRLERKYSSIPVIQGIVNEVRQSMQLMLSQLIQQLRTNIQLPACLRVIGYLRRMDVFTEAELRVKFLQARDAWLRSILTAIPNDDPYFHITKTIEASRVHLFDIITQYRAIFSDEDPLLPPAMGEHTVNESAIFHGWVLQKVSQFLQVLETDLYRGIGGHLDSLLGQCMYFGLSFSRVGADFRGQLAPVFQRVAISTFQKAIQETVEKFQEEMNSYMLISAPAILGTSNMPAAVPATQPGTLQPPMVLLDFPPLACFLNNILVAFNDLRLCCPVALAQDVTGALEDALAKVTKIILAFHRAEEAAFSSGEQELFVQFCTVFLEDLVPYLNRCLQVLFPPAQIAQTLGIPPTQLSKYGNLGHVNIGAIQEPLAFILPKRETLFTLDDQALGPELTAPAPEPPAEEPRLEPAGPACPEGGRAETQAEPPSVGP [COG8] | 0.73 | 1.67 | -0.112 | -0.00808 | 50.6 | 48.4 |

Source: the supplement of paper PMC5998384
